This passage reports binding result and Ka results from patent US20240018269A1 (MACFARLANE BURNET INSTITUTE FOR MEDICAL RESEARCH AND PUBLIC …, published 2024).

In experiment [1] the target is T1, human FcγRI expressed on the cell surface (human, UniProt P12314 16-374).
T1 construct: whole, on cells; Co-expressed with the FcR common γ chain
In words: flow cytometry; monomeric IgG on IIA1.6 cells expressing FcγRI. As for the experimental part: (§1) Antibody FcγR binding was measured using either immune complexes or monomeric IgG. Immune complexes were generated by incubating the anti-TNP antibodies (parental or mutant anti-TNP IgG) with TNP-BSA at a 2:1 ratio (40 μg/ml:20 μg/ml) for 30 minutes at 37° C. then 10 minutes at 4° C. […] The cells were washed twice, resuspended in […] PBS/0.5% BSA and 10,000 viable cells analysed in at least three experiments. Monomer IgG binding (MFI) were fitted to a single binding site model to determine binding affinity (KA). Similarly immune complex binding is reported as apparent affinity (K app).
(Flow cytometry measures light scatter and fluorescence of single cells or particles in a stream.)

Experiment [2] addresses T2, human FcγRIIa-R131 expressed on the cell surface (human, UniProt P12318 34-317).
T2 construct: whole, on cells
T2 sequence (looked up): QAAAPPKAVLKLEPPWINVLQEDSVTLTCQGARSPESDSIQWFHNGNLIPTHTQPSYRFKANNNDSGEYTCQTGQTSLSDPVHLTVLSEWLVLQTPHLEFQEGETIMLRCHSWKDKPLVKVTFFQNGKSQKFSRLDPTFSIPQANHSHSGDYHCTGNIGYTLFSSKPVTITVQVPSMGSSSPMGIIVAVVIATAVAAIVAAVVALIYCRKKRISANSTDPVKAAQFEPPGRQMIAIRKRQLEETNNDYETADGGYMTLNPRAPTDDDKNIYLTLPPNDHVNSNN
In words: flow cytometry; immune complexes with TNP-BSA on IIA1.6 cells expressing the FcγR. As for the experimental part:
as §1
(§2) The interaction of the mutant IgGs with the human FcγRs on the cell surface was evaluated by flow cytometry and compared to the binding of parental IgG2 or IgG4 as well as to IgG1, the “universal” ligand for all human FcγR. Binding to the low affinity human FcγR (FcγRIIb, FcγRIIa, and FcγRIII) was performed using immune complexes (FIG. 1A-E). Binding to the high affinity FcγRI was determined using monomeric IgG (FIG. 1F). […] Uncomplexed, monomeric IgG1 and IgG4, but not IgG2, bound to the high affinity FcγRI.

Experiment [3] addresses T3, human FcγRIIa-H131 expressed on the cell surface (human, UniProt P12318 34-317).
T3 construct: whole, on cells
T3 sequence (looked up): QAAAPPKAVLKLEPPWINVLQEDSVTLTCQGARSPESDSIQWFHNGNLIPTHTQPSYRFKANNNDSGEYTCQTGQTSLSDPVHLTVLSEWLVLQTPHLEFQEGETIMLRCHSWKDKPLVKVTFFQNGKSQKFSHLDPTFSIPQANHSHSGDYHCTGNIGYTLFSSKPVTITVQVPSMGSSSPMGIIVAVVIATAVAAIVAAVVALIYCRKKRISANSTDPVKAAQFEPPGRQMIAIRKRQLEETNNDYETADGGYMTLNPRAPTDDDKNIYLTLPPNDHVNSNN
The experiment is described as above. As for the experimental part:
as §1, §2

Experiment [4] addresses T4, human FcγRIIIa-F158 expressed on the cell surface (human, UniProt P08637 17-254).
T4 construct: whole, on cells; Co-expressed with the FcR common γ chain (FcRγ-EGFP)
The description is as above. As for the experimental part:
as §1, §2

Experiment [5] addresses T5, human FcγRIIIa-V158 expressed on the cell surface (human, UniProt P08637 17-254).
T5 construct: whole, on cells; Co-expressed with the FcR common γ chain (FcRγ-EGFP)
The description is as above. As for the experimental part:
as §1, §2

The target of experiment [6] is T6, recombinant soluble FcγRIIb (human, UniProt P31994 43-217).
T6 construct: extracellular domain; also called rsFcγRIIb
T6 sequence (looked up): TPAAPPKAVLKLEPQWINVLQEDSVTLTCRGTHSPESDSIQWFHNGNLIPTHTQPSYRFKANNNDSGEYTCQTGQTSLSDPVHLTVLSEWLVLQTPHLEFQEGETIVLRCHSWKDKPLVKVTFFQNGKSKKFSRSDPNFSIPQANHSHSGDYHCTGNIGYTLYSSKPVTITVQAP
As to the kind of experiment: BLI (Octet); anti-TNP IgG captured on TNP-BSA-biotin, rsFcγR in solution; global 1:1 Langmuir fit. As for the experimental part: Affinity measurements of IgG:FcR interaction using Bio-Layer Interferometry (OCTET) TNP-BSA was reacted with the EZ-Link™ biotinylation reagent (ThermoFisher Scientific) according to the manufacturer's instructions. The resulting TNP-BSA-biotin (5 μg/ml, 30 sec) was captured to ˜0.8 nm on streptavidin BLI probes using an Octet Red96 (ForteBio; Molecular Devices LLC, San Jose, CA, United States of America) then loaded with anti-TNP IgG (4 μg/ml, 75 sec). A baseline was established (60 sec) followed by the association and dissociation (90s) of a concentration series (15 nM to 20 μM) of rsFcγRIIa-R131 or rsFcγRIIb. Regeneration after each initial reaction TNP-BSA-biotin capture and the subsequent binding cycles used 10 mM HCl.
On the technique in general: In BLI a coated tip is dipped into the sample, and binding shifts an interference pattern.

T5 sequence (P08637 17-254 F176V): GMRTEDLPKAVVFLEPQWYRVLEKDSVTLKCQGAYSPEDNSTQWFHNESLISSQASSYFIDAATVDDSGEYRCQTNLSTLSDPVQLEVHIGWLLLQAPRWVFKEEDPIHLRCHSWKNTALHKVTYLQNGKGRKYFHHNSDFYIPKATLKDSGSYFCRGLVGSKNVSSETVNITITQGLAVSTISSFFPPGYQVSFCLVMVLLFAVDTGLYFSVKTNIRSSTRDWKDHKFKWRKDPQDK
T1 sequence (P12314 16-374): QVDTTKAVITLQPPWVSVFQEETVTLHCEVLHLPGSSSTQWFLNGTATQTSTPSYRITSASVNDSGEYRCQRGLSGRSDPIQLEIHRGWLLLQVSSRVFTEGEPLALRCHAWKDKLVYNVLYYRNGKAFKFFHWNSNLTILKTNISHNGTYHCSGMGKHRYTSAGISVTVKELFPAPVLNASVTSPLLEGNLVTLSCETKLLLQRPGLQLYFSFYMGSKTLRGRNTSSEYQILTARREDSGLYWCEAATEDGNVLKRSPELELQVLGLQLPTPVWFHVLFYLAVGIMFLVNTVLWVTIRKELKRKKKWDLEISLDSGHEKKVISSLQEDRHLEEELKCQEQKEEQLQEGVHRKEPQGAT
T4 sequence (P08637 17-254): as the sequence (P08637 17-254 F176V) above, with V160F counted along it

B1: chimeric anti-TNP human IgG2 (IgG2-WT) (antibody)
heavy: EVQLQESGPSLVKPSQTLSLTCSVTGDSITSGYWNWIRQVPGNKLEYMGFINYSGNTYYNPSLRSRISITRDTSKNQYFLHLNSVTTEDTATYYCARANWDVFAYWGQGTLVTVSAASTKGPSVFPLAPCSRSTSESTAALGCLVKDYFPEPVTVSWNSGALTSGVHTFPAVLQSSGLYSLSSVVTVPSSNFGTQTYTCNVDHKPSNTKVDKTVERKCCVECPPCPAPPVAGPSVFLFPPKPKDTLMISRTPEVTCVVVDVSHEDPEVQFNWYVDGVEVHNAKTKPREEQFNSTFRVVSVLTVVHQDWLNGKEYKCKVSNKGLPAPIEKTISKTKGQPREPQVYTLPPSREEMTKNQVSLTCLVKGFYPSDIAVEWESNGQPENNYKTTPPMLDSDGSFFLYSKLTVDKSRWQQGNVFSCSVMHEALHNHYTQKSLSLSLGK
light: not shown
notes: also called parental IgG2; wild type IgG2
In the case of B1, the binding result is “no binding” in experiment [1]; “no binding” in experiment [2]; “binds” in experiment [3]; “no binding” in experiment [4]; “no binding” in experiment [5]. Besides, the Ka in experiment [6] was 59000 M⁻¹.
